These results are taken from publication PMC3708853.

Assay [1] concerns the target wild-type CD47 re-expressed in CD47-deficient JinB8 T cells (UniProt Q08722).
For assay [2], the target named is CD47 on Jurkat T cells (human (endogenous in Jurkat)) (UniProt Q08722).

Substance “recombinant thrombospondin-1 (TSP-1) (from UniProt P07996 19-1170) (natural protein)” registered an inhibition of CD69 induction (mRNA, real-time PCR) in anti-CD3-activated JinB8 cells transfected with wild-type CD47 in assay [1] of 35.1%. Moreover, the reduction of CD69 mRNA expression (real-time PCR) in Jurkat T cells activated by anti-CD3 antibody for 2 hours, TSP-1 10 µg/ml; no inhibition in CD47-deficient JinB8 T cells in assay [2] turned out to be 45%.

On to “Blastomyces adhesin-1 (BAD-1), native protein purified from B. dermatitidis yeast (natural protein)”, for which the inhibition of CD69 induction (mRNA, real-time PCR) in anti-CD3-activated JinB8 cells transfected with wild-type CD47 in assay [1] was 34.9%. Also, the reduction of CD69 mRNA expression (real-time PCR) in Jurkat T cells activated by anti-CD3 antibody for 2 hours, BAD-1 10 µg/ml; no block in CD47-deficient JinB8 T cells in assay [2] stood at 65%.
